The results in this text go back to PMC9898758, “Analysis of a degron-containing reporter protein GFP-CL1 reveals a role for SUMO1 in cytosolic protein quality control” (The Journal of Biological Chemistry, 2022).

This assay concerns the target T1, MBP-Slx5 (UniProt P32828 1-619).
T1 construct: Plasmid was a gift from Dr Oliver Kerscher; also called MBP-tagged SLX5; source: E. coli Rosetta, purified (amylose resin)
T1 sequence (looked up): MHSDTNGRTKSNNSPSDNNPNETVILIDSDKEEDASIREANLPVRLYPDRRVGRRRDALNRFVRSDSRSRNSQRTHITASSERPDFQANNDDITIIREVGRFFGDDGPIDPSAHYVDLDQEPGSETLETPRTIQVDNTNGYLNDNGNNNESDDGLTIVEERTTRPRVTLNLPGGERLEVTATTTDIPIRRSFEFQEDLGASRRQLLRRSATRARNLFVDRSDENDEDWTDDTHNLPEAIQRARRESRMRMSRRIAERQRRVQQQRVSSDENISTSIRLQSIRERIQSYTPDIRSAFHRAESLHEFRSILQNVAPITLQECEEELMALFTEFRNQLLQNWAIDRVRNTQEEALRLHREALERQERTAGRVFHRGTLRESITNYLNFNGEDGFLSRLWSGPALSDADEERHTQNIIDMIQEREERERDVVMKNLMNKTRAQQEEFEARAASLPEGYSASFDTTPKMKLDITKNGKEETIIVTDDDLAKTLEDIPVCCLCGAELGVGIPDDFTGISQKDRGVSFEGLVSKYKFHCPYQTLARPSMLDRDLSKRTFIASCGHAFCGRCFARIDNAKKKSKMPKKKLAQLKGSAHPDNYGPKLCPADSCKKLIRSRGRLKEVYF
Nature of the assay: pull-down; MBP-Slx5 or MBP alone immobilised on amylose beads, incubated with purified GST, GST-Smt3 or GST-Smt3-K38/40A; washes, SDS-PAGE, immunoblot with anti-MBP and anti-GST. The following applies: both partners purified.

B1: GST-tagged Smt3-K38/40A mutant (natural protein, S. cerevisiae)
chain: EVKPEVKPETHINLKVSDGSSEIFFAIAKTTPLRRLMEAFAKRQGKEMDSLRFLYDGIRIQADQTPEDLDMEDNDIIEAHREQIGG
notes: Smt3 of S. cerevisiae with K38A and K40A; SMT3^K38/40A cloned into pGEX-6p-1; also called GST-SMT3^K38/40A; GST-Smt3-K30/40A; source: E. coli Rosetta, purified (Glutathione Sepharose 4B)
Take B1: the “fold reduction in binding against WT Smt3” value is > 5 fold.
